Data: patent US20190375846A1 (ULTRAHUMAN ONE, published 2019)
Blank lines part the entries; values can stand above or below the binder they belong to.

Experiments:
[1] = target: T1, human GITR at the cell surface (human, UniProt Q9Y5U5 26-241); test: cell-based or functional assay
T1 sequence (looked up): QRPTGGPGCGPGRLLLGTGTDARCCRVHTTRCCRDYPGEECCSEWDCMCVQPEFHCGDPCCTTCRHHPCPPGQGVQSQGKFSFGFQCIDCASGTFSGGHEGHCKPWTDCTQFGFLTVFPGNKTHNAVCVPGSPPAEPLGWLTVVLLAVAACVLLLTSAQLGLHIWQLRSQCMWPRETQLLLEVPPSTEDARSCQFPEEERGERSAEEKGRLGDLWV

[2] = target: cynomolgus monkey GITR at the cell surface (cynomolgus monkey); test: cell-based or functional assay
[3] = target: T1, human GITR at the cell surface; test: flow cytometry on CHO-K1 human GITR+ cells; competitor: soluble human GITRL
human GITR-Fc = target: T2, human GITR-Fc (human, UniProt Q9Y5U5 26-161); test: direct titration ELISA, coated human GITR-Fc, IgG1
T2 construct: Recombinant GITR-Fc; also called hGITR-Fc; hGITR; not shown: Fc part
T2 sequence (looked up): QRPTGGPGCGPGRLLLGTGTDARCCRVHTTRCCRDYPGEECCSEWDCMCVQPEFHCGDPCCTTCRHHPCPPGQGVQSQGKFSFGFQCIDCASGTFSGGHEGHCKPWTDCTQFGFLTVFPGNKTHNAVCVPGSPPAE
Experimental: (§1) To coat Greiner Bio-One High bind ELISA plates, target proteins were diluted to 1 μg/ml in carbonate buffer and added at 100 μl per well, at 4° C., o/n. Coated plates were washed 3× with PBS pH7.4, blocked with 1% BSA in PBS (380 μl/well) for 1 hr at RT, then washed 3× with PBS-Tween 20 (PBST). GITR antibodies (100 μl/well; diluted in PBST) were then added and then incubated 1 hr at RT. Plates were then washed 3× with PBST and goat anti-human kappa chain-HRP added (100 μl/well) at RT, for 1 hr. Plates were then washed 3× with PBST and twice with PBS before the addition of 100 μl TMB per well. Reactions were stopped by adding 100 μl 2M H₂SO₄/well and OD was read on a plate reader at 450 nm. IgG binding analysis via ELISA on negatively charged biomolecular surfaces were performed as previously described (see Mouquet et al., 2010, Nature 467: 591-595).
Retention of GITR-binding function in the purified IgG1 proteins was first examined by titration in direct binding ELISA against human GITR-Fc. […] Importantly, the >100-fold loss of binding function in the VH2 IgG family further illustrated that the HCDR1 could not be fully germ-lined a priori to match the native sequence of the human germline HCDR1 found in the framework used for grafting (IGHV3-7).

[4] = target: T3, cynomolgus monkey GITR-Fc (cynomolgus monkey (Macaca fascicularis)); test: direct titration ELISA on coated cyno GITR-Fc, IgG1 0.001-1 µg/ml, OD 450 nm
T3 construct: also called cyno GITR-Fc; cGITR-Fc
Experimental: as §1
The 17 purified IgGs described above were then tested for binding to human and cyno GITR-Fc in direct titration ELISA format.

- EC50 of FcγRIIIa activation, Promega ADCC reporter assay, CHO-K1 target cells expressing human GITR [1]: 15.4 nM
- potency against VH1/VL1 IgG1, ADCC reporter assay on human GITR CHO-K1 cells [1]: 2 fold
- EC50 of FcγRIIIa activation, Promega ADCC reporter assay, CHO-K1 target cells expressing cyno GITR [2]: 57.9 nM
- potency against VH1/VL1 IgG1, ADCC reporter assay on cyno GITR CHO-K1 cells [2]: 2 fold
- fold reduction of binding signal in the presence of 10 µg/ml soluble GITRL [3]: > 10 fold
B1: D-A6 IgG1 (antibody, V domains shown)
VH: EVQLVESGGGLVQPGGSLRLSCAASGFSLSTSGYGVGWVRQAPGKGLEWLAHIWWDDDKYYVDSVKGRFTISRDNAKNSLYLQMNSLRAEDTAVYYCARTRQYFPFAYWGQGTLVTVSS
VL: EIVLTQSPATLSLSPGERATLSCRASQSVGSNLAWYQQKPGQAPRLLIYSASYRYTGIPARFSGSGSGTDFTLTISSLEPEDFAVYYCQQYSTDPLTFGGGTKVEIK
notes: Human IgG1

- EC50 (human GITR-Fc): ≥ 4 ng/mL
- EC50 (read off the curve) [4]: ~0.05 µg/mL
B2: chimeric anti-GITR IgG1 mVH/mVL (6C8 murine v-domains) (antibody, V domains shown)
VH: QVTLKESGPGILKPSQTLSLTCSFSGFSLSTSGMGVGWIRQPSGKGLEWLAHIWWDDDKYYNPSLKSQLTISKDTSRNQVFLKITSVDTADAATYYCARTRRYFPFAYWGQGTLVTVSS
VL: DIVMTQSQKFMSTSVGDRVSVTCKASQNVGTNVAWYQQKPGQSPKALIYSASYRYSGVPDRFTGSGSGTDFTLTINNVHSEDLAEYFCQQYNTDPLTFGAGTKLEIK
notes: Full-length human IgG1, kappa; also called GITR-mVH/mVL; chimeric IgG
